B1: Pyrococcus horikoshii coenzyme A-disulfide reductase (phCoADR) (Pyrococcus horikoshii OT3) (protein)
chain: MGENMKKKVVIIGGGAAGMSAASRVKRLKPEWDVKVFEATEWVSHAPCGIPYVVEGLSTPDKLMYYPPEVFIKKRGIDLHLNAEVIEVDTGYVRVRENGGEKSYEWDYLVFANGASPQVPAIEGVNLKGVFTADLPPDALAIREYMEKYKVENVVIIGGGYIGIEMAEAFAAQGKNVTMIVRGERVLRRSFDKEVTDILEEKLKKHVNLRLQEITMKIEGEERVEKVVTDAGEYKAELVILATGIKPNIELAKQLGVRIGETGAIWTNEKMQTSVENVYAAGDVAETRHVITGRRVWVPLAPAGNKMGYVAGSNIAGKELHFPGVLGTAVTKFMDVEIGKTGLTEMEALKEGYDVRTAFIKASTRPHYYPGGREIWLKGVVDNETNRLLGVQVVGSDILPRIDTAAAMLMAGFTTKDAFFTDLAYAPPFAPVWDPLIVLARVLKF
notes: recombinant in E. coli BL21(DE3); wild type from pET24d; quad mutant codon-optimized gene in pET21b+ with C-terminal His tag; FAD-containing homodimer
B2: Pyrococcus horikoshii coenzyme A-disulfide reductase (phCoADR) (Pyrococcus horikoshii OT3; H367G/P67G/Y65A/Y66A) (protein)
chain: MGENMKKKVVIIGGGAAGMSAASRVKRLKPEWDVKVFEATEWVSHAPCGIPYVVEGLSTPDKLMAAGPEVFIKKRGIDLHLNAEVIEVDTGYVRVRENGGEKSYEWDYLVFANGASPQVPAIEGVNLKGVFTADLPPDALAIREYMEKYKVENVVIIGGGYIGIEMAEAFAAQGKNVTMIVRGERVLRRSFDKEVTDILEEKLKKHVNLRLQEITMKIEGEERVEKVVTDAGEYKAELVILATGIKPNIELAKQLGVRIGETGAIWTNEKMQTSVENVYAAGDVAETRHVITGRRVWVPLAPAGNKMGYVAGSNIAGKELHFPGVLGTAVTKFMDVEIGKTGLTEMEALKEGYDVRTAFIKASTRPGYYPGGREIWLKGVVDNETNRLLGVQVVGSDILPRIDTAAAMLMAGFTTKDAFFTDLAYAPPFAPVWDPLIVLARVLKF
notes: as for B1

Columns and labels:
[1] = biological target: T1, Pyrococcus horikoshii coenzyme A-disulfide reductase (phCoADR) (Pyrococcus horikoshii, UniProt O58308, C48S/Y65A/Y66A/P67G/H367G); assay: anaerobic NADH titration, UV-visible spectra; type: biochemical; settings: 50 mM potassium phosphate, pH 7.5, room temperature
T1 construct: gene PH0572; recombinant in E. coli BL21(DE3); wild type from pET24d; quad mutant codon-optimized gene in pET21b+ with C-terminal His tag; FAD-containing homodimer

[2] = biological target: T2, Pyrococcus horikoshii coenzyme A-disulfide reductase (phCoADR) (Pyrococcus horikoshii, UniProt O58308, Y65A/Y66A/P67G/H367G); assay: X-ray crystal structure, […] Å; type: binding; settings: tightly bound CoA in substrate channel; mixed disulfide with C48 in oxidized enzyme (covalent)
T2 construct: gene PH0572; recombinant in E. coli BL21(DE3); wild type from pET24d; quad mutant codon-optimized gene in pET21b+ with C-terminal His tag; FAD-containing homodimer

purified protein [3] = substrate: NC(=O)C1=CN([C@@H]2O[C@H](COP(=O)(O)OP(=O)(O)OC[C@H]3O[C@@H](n4cnc5c(N)ncnc54)[C@H](OP(=O)(O)O)[C@@H]3O)[C@@H](O)[C@H]2O)C=CC1; assay: purified protein; type: biochemical, Pyrococcus horikoshii; settings: 100 μM CoA disulfide, 75 °C, 50 mM potassium phosphate, pH 7.5
purified protein [4] = substrate: NC(=O)C1=CN([C@@H]2O[C@H](COP(=O)(O)OP(=O)(O)OC[C@H]3O[C@@H](n4cnc5c(N)ncnc54)[C@H](O)[C@@H]3O)[C@@H](O)[C@H]2O)C=CC1; assay: purified protein; type: biochemical, Pyrococcus horikoshii; settings: 100 μM CoA disulfide, 75 °C, 50 mM potassium phosphate, pH 7.5
purified protein [5] = substrate: CC(C)(COP(=O)(O)OP(=O)(O)OC[C@H]1O[C@@H](n2cnc3c(N)ncnc32)[C@H](O)[C@@H]1OP(=O)(O)O)[C@@H](O)C(=O)NCCC(=O)NCCSSCCNC(=O)CCNC(=O)[C@H](O)C(C)(C)COP(=O)(O)OP(=O)(O)OC[C@H]1O[C@@H](n2cnc3c(N)ncnc32)[C@H](O)[C@@H]1OP(=O)(O)O; assay: purified protein; type: biochemical, Pyrococcus horikoshii; settings: 100 μM NADPH, 75 °C, 50 mM potassium phosphate, pH 7.5

T1 sequence (O58308 whole entry C48S/Y65A/Y66A/P67G/H367G): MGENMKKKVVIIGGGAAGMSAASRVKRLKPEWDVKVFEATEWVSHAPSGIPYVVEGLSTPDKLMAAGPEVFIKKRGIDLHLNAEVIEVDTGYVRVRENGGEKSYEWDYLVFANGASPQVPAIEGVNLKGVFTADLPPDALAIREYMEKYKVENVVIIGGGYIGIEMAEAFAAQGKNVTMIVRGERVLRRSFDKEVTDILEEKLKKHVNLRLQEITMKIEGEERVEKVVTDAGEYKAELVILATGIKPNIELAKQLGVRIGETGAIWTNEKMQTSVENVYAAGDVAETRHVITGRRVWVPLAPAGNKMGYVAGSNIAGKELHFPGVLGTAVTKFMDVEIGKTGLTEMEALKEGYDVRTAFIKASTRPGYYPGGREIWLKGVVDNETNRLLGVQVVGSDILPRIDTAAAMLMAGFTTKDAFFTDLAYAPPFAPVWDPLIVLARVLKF

| Molecule | anaerobic NADH titration, UV-visible spectra [1] | X-ray crystal structure, 3.6 Å [2] | kcat (purified protein [3]) [s⁻¹] | Km (purified protein [4]) [µM] | kcat (purified protein [4]) [s⁻¹] | Km (purified protein [5]) [µM] | kcat (purified protein [5]) [s⁻¹] | Km (purified protein [3]) [µM] |
| --- | --- | --- | --- | --- | --- | --- | --- | --- |
| NC(=O)C1=CN([C@@H]2O[C@H](COP(=O)(O)OP(=O)(O)OC[C@H]3O[C@@H](n4cnc5c(N)ncnc54)[C@H](O)[C@@H]3O)[C@@H](O)[C@H]2O)C=CC1 [NADH] | Anaerobic titration of the quad‐C48S mutant showed immediate reduction of FAD |  |  |  |  |  |  |  |
| CC(C)(COP(=O)(O)OP(=O)(O)OC[C@H]1O[C@@H](n2cnc3c(N)ncnc32)[C@H](O)[C@@H]1OP(=O)(O)O)[C@@H](O)C(=O)NCCC(=O)NCCS [CoA] |  | CoA is depicted as sticks where carbon is green, nitrogen blue, oxygen red |  |  |  |  |  |  |
| B1 |  |  | 5.8 ± 0.2 | 73 ± 12 | 2.3 ± 0.3 | 52 ± 1 | 4.4 ± 1.3 |  |
| B2 |  |  | 21.6 ± 2.3 | 75 ± 6 | 8.1 ± 1.4 | 57.0 ± 6.4 | 18.8 ± 2.8 | 16.4 ± 4.9 |
